This is an account of results in patent US20160090422A1 (Genentech, published 2016).

Numbering of substitutions follows the chain as printed.

Test [1] has as its target T1, rhesus monkey CRTh2 (rhesus monkey, UniProt Q9Y5Y4 1-395 (human entry)).
T1 construct: also native on primary rhesus basophils and eosinophils; also called rhesus CRTh2
T1 chain: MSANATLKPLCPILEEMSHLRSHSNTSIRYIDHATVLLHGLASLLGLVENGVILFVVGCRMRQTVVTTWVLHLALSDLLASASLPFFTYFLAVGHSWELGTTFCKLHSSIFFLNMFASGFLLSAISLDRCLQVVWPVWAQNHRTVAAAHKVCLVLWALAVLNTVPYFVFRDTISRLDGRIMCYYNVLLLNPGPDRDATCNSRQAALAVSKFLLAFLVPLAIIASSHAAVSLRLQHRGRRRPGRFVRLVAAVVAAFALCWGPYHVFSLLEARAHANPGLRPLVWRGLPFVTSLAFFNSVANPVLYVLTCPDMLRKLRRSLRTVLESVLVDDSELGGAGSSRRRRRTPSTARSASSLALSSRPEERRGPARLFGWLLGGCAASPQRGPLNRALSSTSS
Nature of the test: flow cytometry, 293 cells expressing amino-terminal gD-tagged rhesus CRTh2; antibody at 10, 1 and 0.1 ug/ml. For orientation: In flow cytometry, cells or beads pass a laser one at a time.

For test [2], the target named is T2, human CRTh2 (human, UniProt Q9Y5Y4 1-395).
T2 construct: also native CRTh2 on primary human basophils, eosinophils and Th2 cells; also called hCRTh2; chemoattractant receptor-homologous molecule expressed on T helper 2 cells
T2 sequence: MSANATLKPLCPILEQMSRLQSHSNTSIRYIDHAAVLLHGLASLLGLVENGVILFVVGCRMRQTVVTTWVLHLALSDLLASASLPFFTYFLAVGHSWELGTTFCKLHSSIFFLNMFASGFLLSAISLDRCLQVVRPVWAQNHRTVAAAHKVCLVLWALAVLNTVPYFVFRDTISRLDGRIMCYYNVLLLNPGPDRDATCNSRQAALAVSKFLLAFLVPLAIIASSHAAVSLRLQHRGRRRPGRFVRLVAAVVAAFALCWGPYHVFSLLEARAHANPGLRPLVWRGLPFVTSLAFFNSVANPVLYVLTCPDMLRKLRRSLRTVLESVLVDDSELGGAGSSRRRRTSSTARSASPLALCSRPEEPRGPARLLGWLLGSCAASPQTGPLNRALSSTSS
Nature of the test: radioligand cell binding assay (Scatchard), Fab, 293 cells expressing human CRTh2. The procedure: (§1) The equilibrium dissociation constants (KD) for anti-CRTH2 antibodies binding to cells expressing recombinant CRTh2 receptor were determined using a radioligand cell binding assay. […] The cells expressing the CRTh2 receptor were incubated for 2 hours at room temperature with a fixed concentration of iodinated anti-CRTh2 antibody combined with increasing concentrations of unlabeled anti-CRTh2 antibody and including a zero-added, buffer only sample. After the 2-hour incubation, the competition reactions were transferred to a Millipore Multiscreen filter plate and washed 4 times with binding buffer to separate the free from bound iodinated antibody. The filters were counted on a Wallac Wizard 1470 gamma counter. The binding data was evaluated using NewLigand software (Genentech), which uses the fitting algorithm of Munson and Rodbard to determine the binding affinity of the anti-CRTh2 antibody (Munson and Rodbard, Anal. Biochem, 1980; 107: 220-239).
(§2) To obtain a direct measurement of the KD value of humanized antibodies h19A2.v12 and h19A2.v60, Fab fragments of these antibodies were generated and subjected to radioligand cell binding assays (FIG. 4B).

Test [3] deals with T3, cynomolgus monkey CRTh2 (cynomolgus monkey, UniProt Q9Y5Y4 1-395 (human entry)).
T3 construct: also native on primary cyno basophils and eosinophils; also called cyno CRTh2; cynomologous CRTh2
T3 chain: T1 chain with P193S, P276R, R360H
Nature of the test: radioligand cell binding assay (Scatchard), Fab, 293 cells expressing cynomolgus monkey CRTh2. How it is done:
After the 2-hour incubation, the competition reactions were transferred to a Millipore Multiscreen filter plate and washed 4 times with binding buffer to separate the free from bound iodinated antibody. The filters were counted on a Wallac Wizard 1470 gamma counter. The binding data was evaluated using NewLigand software (Genentech), which uses the fitting algorithm of Munson and Rodbard to determine the binding affinity of the anti-CRTh2 antibody (Munson and Rodbard, Anal. Biochem, 1980; 107: 220-239).
as §2
(§3) Radiolabeled ligand analysis with homologous competition was performed to assess the dissociation constant (KD) of anti-CRTh2 antibodies to surface expressed human and cynomolgus monkey CRTh2 on 293 cells. To obtain a direct measurement of the KD value of humanized antibodies h19A2.v52 and h19A2.v46, Fab fragments of these antibodies were generated (FIG. 16).

Test [4] addresses T3, cynomolgus monkey CRTh2. The test can be described thus: ratio of Scatchard KD values, cyno against human CRTh2 on 293 cells. The procedure: The filters were counted on a Wallac Wizard 1470 gamma counter. The binding data was evaluated using NewLigand software (Genentech), which uses the fitting algorithm of Munson and Rodbard to determine the binding affinity of the anti-CRTh2 antibody (Munson and Rodbard, Anal. Biochem, 1980; 107: 220-239).
as §2, §3

Test [5] has as its target T1, rhesus monkey CRTh2. The test can be described thus: flow cytometry, 293 cells expressing rhesus CRTh2; antibody at 0.55, 0.18, 0.06, 0.02 and 0.006 ug/ml [Cont.].
Test [6] deals with T2, human CRTh2. The test can be described thus: flow cytometry, 293 cells expressing amino-terminal gD-tagged human CRTh2; antibody at 10, 1 and 0.1 ug/ml.
In test [7] the target is T1, rhesus monkey CRTh2. The test can be described thus: flow cytometry, 293 cells expressing rhesus CRTh2 [Cont.].
Test [8] concerns the target T3, cynomolgus monkey CRTh2. Nature of the test: flow cytometry, 293 cells expressing cynomolgus CRTh2 [Cont.].
For test [9], the target named is T2, human CRTh2. The test can be described thus: radioligand cell binding assay with homologous competition (Scatchard), 293 cells expressing human CRTh2. How it is done: as §1, §2
Test [10] has as its target T2, human CRTh2. The test can be described thus: radioligand cell binding assay with homologous competition (Scatchard), 300.19 cells expressing human CRTh2. How it is done: as §1, §2
Test [11] deals with T2, human CRTh2. Nature of the test: flow cytometry on basophils and eosinophils of human PBMC; antibody at 5 and 0.5 ug/ml, labelled anti-mouse IgG [Cont.].

B1: humanized and engineered anti-CRTh2 antibody hu19A2.v12 (antibody, human IgG1, kappa, V domains shown)
VH: EVQLVESGGGLVQPGGSLRLSCAASGFTFSSYSMSWVRQAPGKGLEWVAYISNGGSTTDYPGTVEGRFTISRDNSKNTLYLQMNSLRAEDTAVYYCARHRTNWDFDYWGQGTLVTVSS
VL: DIQMTQSPSSLSASVGDRVTITCRASENIYWNLAWYQQKPGKAPKLVVYAATQLADGVPSRFSGSGSGTDYTLTISSLQPEDFATYYCQHFWITPWTFGQGTKVEIKR
notes: Human IgG1; whole antibody as used in flow cytometry; also called h19A2.v12
B1: the binding result in test [1] is reported as “binds”.

B2: h19A2.v46 Fab fragment (Fab, V domains shown)
VH: B1 VH with S33L, Y50R
VL: DIQMTQSPSSLSASVGDRVTITCRASENIYWNLAWYQQKPGKAPKLVVYAATQLADGVPSRFSGSGSGTDYTLTISSLQPEDFATYYCQHFWITPWTFGQGTKVEIK
notes: Fab fragment of the humanized IgG; also called h19A2.v46 (Fab fragment of IgG)
With B2, the Kd (as a rule, the equilibrium constant for the complex coming apart) in [2] amounted to 6.4 nM; in test [3], 8.6 nM.

B3: h19A2.v52 Fab fragment (Fab, V domains shown)
VH: B1 VH with S33L, Y50R
VL: B2 VL with W31Y
notes: Fab fragment of the humanized IgG; also called h19A2.v52 (Fab fragment of IgG); h19A2.52
Consider B3, for which the “relative binding affinity for human versus cynomolgus CRTh2” value in [4] was ≤ 2 fold. The Kd in test [2] came out at 13.7 nM; in [3], 21.3 nM.

B4: h19A2.v12 Fab fragment (Fab, V domains shown)
VH: B1 VH
VL: B2 VL
notes: Fab fragment of the humanized IgG, 125I-labelled in the radioligand assay; also called h19A2.v12 (Fab fragment of IgG); h19A2.12
B4: the “relative binding affinity for human versus cyno CRTh2” value in [4] was ≤ 3 fold. The figures for the Kd in test [2] and in [3] were 51 nM and 152 nM, respectively.

B5: humanized affinity matured anti-CRTh2 antibody hu19A2.v46 (antibody, human IgG1, kappa, V domains shown)
VH: B1 VH with S33L, Y50R
VL: B1 VL
notes: Human IgG1; whole antibody as used in flow cytometry; also called h19A2.v46
Turning to B5, the binding result in [5] is listed as “binds”.

B6: humanized affinity matured anti-CRTh2 antibody hu19A2.v52 (antibody, human IgG1, kappa, V domains shown)
VH: B1 VH with S33L, Y50R
VL: B1 VL with W31Y
notes: Human IgG1; whole antibody as used in flow cytometry and the cAMP assay; also called h19A2.v52; h19A2.52
For the molecule B6, the binding result in test [5] is listed as “binds”.

B7: humanized anti-CRTh2 antibody hu19A2.v1 (antibody, human IgG1, kappa, V domains shown)
VH: B1 VH with D59Y
VL: B1 VL with W31S
notes: also called h19A2.v1
As for B7, the binding result in test [6] is listed as “binds”.

B8: h19A2.v60 Fab fragment (Fab, V domains shown)
VH: B1 VH with S33L, Y50R
VL: B2 VL with W31Y, V47L, V48I, D56E
notes: Fab fragment of the humanized IgG; also called h19A2.v60 (Fab fragment of IgG)
Regarding B8, the Kd in test [2] turned out to be 56 nM; in [3], 39 nM.

B9: murine anti-CRTh2 antibody 31A5 (antibody, mouse IgG2a, V domains shown)
VH: QVQLKESGPGLVAPSQSLSITCTVSGFSLTGYGVNWVRQPPGKGLEWLGMIWDDGTTDFDSALRSRLSISKDNSKSQVFLKMNSLQTDDTARYFCARGDYGYAMDYWGQGTSVTVSS
VL: DIQMTQSPASLSVSVGETVTITCRASVNIYSNLAWYQQRQGKSPQLLVYAATNLAEGVPSRFSGSGSGTQYSLKINSLQSEDFGSYYCQHFWVTPYTFGGGTKLEIK
notes: Mouse monoclonal (hybridoma antibody; heavy chain also recloned with mouse IgG2a Fc); also called mu31A5
Take B9: the binding result in test [7] and in test [8] was “no binding (tested: 20 ug/ml)” each time.

B10: murine anti-CRTh2 antibody 19A2 (antibody, V domains shown)
VH: EVKLVESGGGLVQPGGSLKLSCAASGFTFSSYSMSWVRQTPEKRLEWVAYISNGGSTTYYPGTVEGRFTISRDNAKNTLFLQMSSLRSKDTAMYYCARHRTNWDFDYWGQGTTLTVSS
VL: B9 VL with V27E, R39K, L47V, N53Q, E56D, V93I, Y96W
notes: whole IgG in the Scatchard assay; also called mu19A2; Mab 19A2
Consider B10, for which the equilibrium dissociation constant (Kd) in test [9] was found to be 2 nM; in test [10] it was 10.2 nM.

B11: murine anti-CRTh2 antibody 3C12 (antibody, mouse IgG2a, V domains shown)
VH: QVQLQQSGADLVRPGTSVKVSCKASGYAFTNYLIDWVKQRPGQGLEWIGAIHPGSGRTHYNEKFKGKATLTADKSSSAAYMQISSLTSDDSAVFFCARSGGSSFDYYAMDYWGQGTSVTVSS
VL: DIQMTQSPSSLSASLGERVSLTCRASQEIGGYLSWLQQKPDGTFKRLIYAASTLDSGVPKRFSGSRSGSDYSLTISSLESEDFADYYCLQYANYPYTFGGGTKLEIK
notes: Mouse monoclonal (hybridoma antibody; heavy chain also recloned with mouse IgG2a Fc); also called mu3C12
As for B11, the binding result is “no binding (tested: 20 ug/ml)” in test [7], “no binding (tested: 20 ug/ml)” in [8] and “binds” in test [11].

B12: murine anti-CRTh2 antibody 8B1 (antibody, V domains shown)
VH: QVQLQQSGTGLVRPGTSVRVSCKASGYAFITYLIEWIKQRPGQGLEWIGVIHPGSGNSHYNEKFKGKATLTADTSSSTAYMQLSSLTSGDSAVYFCARSGSSSFDYYAMDFWGQGTSVTVSS
VL: B11 VL with G30S, L33F, F44I
notes: Mouse monoclonal, hybridoma antibody or recloned with mouse IgG2a Fc; whole IgG in the Scatchard assay; also called mu8B1; Mab 8B1
With B12, the Kd in test [9] was 2.6 nM.
